Laboratory results as given in PMC7083938, “NELL2-Robo3 complex structure reveals mechanisms of receptor activation for axon guidance” (Nature Communications, 2020).

Assays:
Assay in all cases: flow cytometry on cells; biotinylated ligand at various concentrations, 30 min at 4 °C in PBS + 0.1% BSA, on Drosophila S2 cells displaying the partner (C-terminal FLAG, rat Neurexin-1 transmembrane helix); Cy5-streptavidin; gated on anti-FLAG positive cells; MFI fit to a single-site model; apparent KD
Conditions in all cases: one partner purified
[1] = molecular target: T1, hRobo3 FN1-3 R630A, biotinylated (human, UniProt Q96MS0 549-870, R630A, biotin on the Avi-tag (BirA))
T1 construct: human Robo3, FN domains 1-3, P549-L870; source: High Five cells (baculovirus), purified, biotinylated with BirA (general methods)
T1 sequence (looked up): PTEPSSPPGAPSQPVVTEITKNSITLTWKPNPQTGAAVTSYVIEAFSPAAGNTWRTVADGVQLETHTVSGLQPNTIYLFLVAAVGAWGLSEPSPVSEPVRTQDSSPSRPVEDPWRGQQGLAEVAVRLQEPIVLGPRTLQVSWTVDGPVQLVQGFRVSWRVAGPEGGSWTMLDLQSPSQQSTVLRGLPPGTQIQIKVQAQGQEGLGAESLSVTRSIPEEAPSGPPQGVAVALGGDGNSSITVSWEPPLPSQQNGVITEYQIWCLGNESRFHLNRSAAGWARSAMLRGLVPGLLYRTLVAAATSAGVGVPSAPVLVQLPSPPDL

[2] = molecular target: T2, hRobo3 FN1-3 F594A/W602A, biotinylated (human, UniProt Q96MS0 549-870, F594A | W602A, biotin on the Avi-tag (BirA))
T2 construct: human Robo3, FN domains 1-3, P549-L870; source: High Five cells (baculovirus), purified, biotinylated with BirA (general methods)
T2 sequence (looked up): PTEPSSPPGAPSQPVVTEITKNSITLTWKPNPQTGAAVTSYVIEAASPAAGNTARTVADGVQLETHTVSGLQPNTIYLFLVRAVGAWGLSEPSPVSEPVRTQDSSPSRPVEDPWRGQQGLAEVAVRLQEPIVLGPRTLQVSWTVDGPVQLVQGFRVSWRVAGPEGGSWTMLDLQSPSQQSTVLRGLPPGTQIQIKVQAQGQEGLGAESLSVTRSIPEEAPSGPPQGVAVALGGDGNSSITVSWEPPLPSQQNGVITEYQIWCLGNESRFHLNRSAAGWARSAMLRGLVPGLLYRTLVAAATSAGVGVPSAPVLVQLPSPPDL

[3] = molecular target: T3, hRobo3 FN1-3 I624A/L626A, biotinylated (human, UniProt Q96MS0 549-870, I624A | L626A, biotin on the Avi-tag (BirA))
T3 construct: human Robo3, FN domains 1-3, P549-L870; source: High Five cells (baculovirus), purified, biotinylated with BirA (general methods)
T3 sequence (looked up): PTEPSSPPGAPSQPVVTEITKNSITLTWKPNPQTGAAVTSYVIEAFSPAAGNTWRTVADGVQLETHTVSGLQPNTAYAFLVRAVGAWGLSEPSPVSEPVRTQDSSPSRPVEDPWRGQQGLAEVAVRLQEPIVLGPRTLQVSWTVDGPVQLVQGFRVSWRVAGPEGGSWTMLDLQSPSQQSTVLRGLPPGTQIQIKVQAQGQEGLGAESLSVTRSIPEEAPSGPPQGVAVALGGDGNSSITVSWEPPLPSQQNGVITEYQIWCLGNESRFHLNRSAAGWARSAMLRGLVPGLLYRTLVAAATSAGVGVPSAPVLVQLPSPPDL

B1: hNELL2 EGF1-6 displayed on S2 cells (domain or fragment)
chain: not shown
notes: human NELL2, EGF domains 1-6, G397-T637; also called NELL2EGF1-6 WT (Actin 5C, C-terminal FLAG); FLAG-tagged NELL2 EGF1-6; source: Drosophila S2 cells, transiently transfected, on the cell surface; not shown: FLAG, C-terminal, kept; transmembrane helix of rat Neurexin-1, C-terminal, kept
Question: For B1, which Kd [1] is on record?
Answer: ≥ 100 µM

Question: And the Kd [2]?
Answer: ≥ 100 µM

Question: And the Kd [3]?
Answer: 6.5 µM
